Experimental data reported in PMC8899589, “Anti-PD-L1 peptide-conjugated prodrug nanoparticles for targeted cancer immunotherapy combining PD-L1 blockade with immunogenic cell death” (Theranostics, 2022).
Residues, ends and D or L forms follow the SMILES beside them. *: point of attachment. Doxorubicin(3'-N) = COc1cccc2c1C(=O)c1c(O)c3c(c(O)c1C2=O)C[C@@](O)(C(=O)CO)C[C@@H]3O[C@H]1C[C@H](N*)[C@H](O)[C@H](C)O1

Tests used:
cathepsin B = biological target: T1, cathepsin B (Homo sapiens, UniProt P07858); assay: enzyme cleavage assay, HPLC; assay type: in vitro ADME
T1 construct: purchased R&D systems
Procedure: The purity and molecular weight were analyzed using HPLC and matrix-assisted laser desorption/ionization time of flight mass spectrometer (MALDI-TOF, AB Sciex TOF/TOF 5800 System, USA) with cyano-4-hydroycinnamic acid (CHCA) matrix, respectively. The average size of PD-NPs in saline (1 mg/mL) was determined via dynamic light scattering (DLS; Zetasizer Nano ZS Malvern Instruments, UK). The morphology of nanoparticles in distilled water (1 mg/mL) was observed by transmission electron microscope (TEM; CM-200, USA). As a control, the cathepsin B-cleaved PD-NPs were also observed using TEM, wherein PD-NPs (1mg/mL) were pre-incubated with cathepsin B (10 μg) at 37 °C for 24 h. Enzyme cleavage assays were performed by incubating PD-NPs (10 μM) with cathepsin B, cathepsin D, cathepsin E, caspase-3 and caspase-9 (10 μg) in MES buffer (0.1 M, pH 5.5). As a control experiment, PD-NPs (10 μM) were also pre-incubated with irreversible cathepsin B inhibitor (Z-FA-FMK; 50 μΜ) in MES buffer and then further incubated with cathepsin B. Enzyme reaction buffer was analyzed by HPLC using an acetonitrile: H2O gradient from 20:80 (0 min) to 80:20 (20 min). In vitro drug release from the PD-NPs was further investigated under both physiological and enzymatic conditions. For these analyses, PD-NPs dispersed in the mouse serum (1 mg/mL) were loaded in membrane (Molecular weight cut off: 2000 Da; Dialysis membrane Spectra/Por® 7 MWCO 2000, 18 mm; Carl Roth, Karlsruhe, Germany) in the presence or absence of cathepsin B enzyme (10 μg). After incubation, peptide-DOX or free DOX released to the outer membrane was analyzed using HPLC. Fluorescence profiles of PD-NPs (10 μM) in saline was analyzed by fluorescence spectrophotometer (F-7000, Hitachi).

T lymphocytes = assay: cytotoxicity against immune cells, CCK-8 assay; assay type: cell-based, mouse; conditions: 24 h treatment, P < 0.001
Procedure: (§1) The cytotoxicity of PD-NPs was assessed by cell counting kit-8 (CCK-8) assays. First, 1 x 10^4 4T1, HUVEC, H9C2, BMDMs, BMDCs or CD8^+ T cells were seeded in 96-well cell culture plates. After 24 h of stabilization, the PD-NPs or free DOX were treated with each cell for 24 h. Then, the cells were further incubated with culture medium containing CCK-8 solution (10%) for 20 min, and cell viability was measured by a microplate reader with 450 nm of wavelength (VERSAmaxTM; Molecular Devices Corp., USA).

DCs = assay: cytotoxicity against immune cells, CCK-8 assay; assay type: cell-based, mouse; conditions: 24 h treatment, P < 0.001
Procedure: (§2) 4T1 ([…]), HUVEC (human umbilical vein endothelial cells) and H9C2 (rat BDIX heart myoblasts) cells were maintained in RPMI-1640, Endothelial cell growth medium (EGM) or Dulbecco's Modified Eagle Medium (DMEM) supplemented with 10% (v/v) fetal bovine serum (FBS), 1% streptomycin and 100 U/mL penicillin, respectively. Bone marrow-derived macrophages (BMDMs) and bone marrow-derived dendritic cells (BMDCs) were prepared by isolating bone marrow cells from BALB/c mice. Then, bone marrow cells were differentiated into BMDMs by incubating with M-CSF (Macrophage colony-stimulating factor, 20 ng/mL) for 7 days, or were differentiated into BMDCs by culturing for 7 days in the presence of GM-CSF (20 ng/mL), IL4 (20 ng/mL) and 0.1% β-mercaptoethanol. After isolation, BMDMs and BMDCs were maintained in RPMI-1640 medium supplemented with 10% (v/v) FBS, 1% streptomycin, and 100 U/mL penicillin.
as §1, with “After 24 h of stabilization, the PD-NPs or free DOX were treated with each cell for 24 h.” left out

macrophages = assay type: cell-based, mouse
Procedure: as §2
as §1, with “After 24 h of stabilization, the PD-NPs or free DOX were treated with each cell for 24 h.” left out

4T1 tumor-bearing mice [1] = assay: biodistribution by NIRF imaging; assay type: in vivo, mouse; conditions: 24 h after injection, 3 mg/kg based on DOX contents
Procedure: The 6-week female BALB/c mice were purchased from NaraBio (Gyeonggi-do, Republic of Korea). Mice were bred under pathogen-free conditions in the Korea Institute of Science and Technology (KIST). All experiments with animals were performed in compliance with the relevant laws and institutional guidelines of Institutional Animal Care and Use Committee (IACUC; approved number of 2020-123) in Korea Institute of Science and Technology (KIST). The in vivo biodistribution of PD-NPs was assessed in 4T1 tumor-bearing mice, which were prepared by subcutaneous inoculation of 1 x 10^7 4T1 cells. […] Noninvasive near-infrared fluorescence (NIRF) imaging was performed using an IVIS Lumina Series III system (PerkinElmer; Waltham, MA, USA) after 1, 6 and 24 h of injection. Fluorescence intensity in tumor regions was quantified using a Living Image software (PerkinElmer; Waltham, MA, USA). For ex vivo fluorescence imaging, mice were sacrificed after 24 h of injection, followed by extraction of liver, lung, spleen, kidney, heart and tumor tissues. Fluorescence intensity in tissues was analyzed using an IVIS Lumina Series III system. […] Slide-mounted tumor sections were stained with APC fluorescent dye-conjugated CD31 or PD-L1 antibody at 4 °C for 12 h, after which tumor tissues were analyzed using a Leica TCS SP8 confocal laser-scanning microscope.

4T1 tumor-bearing mice [2] = assay: toxicity study (body weight, blood analyses); assay type: in vivo, mouse; conditions: for blood analyses, hematological parameters (AST, ALT, BUN, CK, WBC, NEUT, LYMP): blood collected on day 16, treated once every three days; for body weights during treatment: treated once every three days
Procedure: The in vivo toxicity of PD-NPs was assessed by hematological analyses. Briefly, free DOX or PD-NPs (3 mg/kg based on DOX contents) were intravenously injected once every three days, and anti-PD-L1 antibody (10 mg/kg) was simultaneously i.p. injected into mice. Then, blood samples were collected from mice on day 16. For complete blood counts (CBCs), each blood sample was mixed with EDTA and a portion of each blood sample was centrifuged at 1,000 xg for 20 min, and then supernatants were stored at 4 °C. The following factors in blood samples were measured; aspartate transaminase (AST), alanine aminotransferase (ALT), blood urea nitrogen (BUN), creatinine kinase-MB (CK-MB), white blood cell (WBC), neutrophil (NEUT) and lymphocytes (LYMP).

[3] = system: PD-L1 in IFN-γ-treated 4T1 cells; assay: PD-L1 expression by western blot; assay type: cell-based; conditions: 4T1 cells pre-treated with IFN-γ 20 ng/mL 24 h, then 2 μM for 24 h
Procedure: PD-L1 expression in 4T1 cells after different treatment was analyzed via western blot. Briefly, 1 × 10^6 4T1 cells were seeded in 6-well cell culture plates with RPMI medium containing 10% FBS and 1% antibiotics. After 24 h of stabilization, the cells were pre-treated with IFN-γ (20 ng/mL) for 24 h and further incubated with equal molar dose (2 μM) of free DOX, PD-NPs, anti-PD-L1 antibody or anti-PD-L1 peptide ([…]) for 24 h. Then, each cell was solubilized with lysis buffer containing 1% protease inhibitors, and the lysates were centrifuged at 10,000 rpm for 15 min to remove cell debris. Proteins in lysates were quantified via BCA protein quantification kit (Thermo Fisher scientific, USA), and then separated by sodium dodecyl sulfate-polyacrylamide (SDS-PAGE) gel electrophoresis and transferred onto polyvinylidene difluoride (PVDF) membranes. Membranes were incubated with TBS-T containing 5% bovine serum albumin (BSA) for 50 min to block non-specific IgG binding and incubated with anti-mouse PD-L1 primary antibody ([…]) for 12 h at 4 °C. Then, membranes were further incubated with HRP-conjugated anti-rabbit IgG antibody for 90 min at room temperature. Finally, immunoreactive bands were observed via enhanced chemiluminescence (ECL) system.

4T1 cells = assay: cytotoxicity, CCK-8 assay; assay type: cell-based; conditions: 4T1, HUVEC and H9C2 cells, 24 h treatment
Procedure: as §1

4T1 tumor-bearing mice [4] = assay: in vivo tumor inhibition; design: species or system mouse; conditions: once every three days; DOX or PD-NPs i.v. 3 mg/kg based on DOX contents, antibody i.p. 10 mg/kg; saline 1655.9 ± 319.94
Procedure: (§3) 4T1 tumor-bearing mice were randomly divided into four groups: (i) saline; (ii) free DOX; (iii) free DOX with anti-PD-L1 antibody; and (iv) PD-NPs. Then, mice were treated once every three days, with free DOX or PD-NPs (3 mg/kg based on DOX contents), at which time tumor volumes had reached 60 - 80 mm^3. The anti-PD-L1 antibody (10 mg/kg) was i.p. injected simultaneously with free DOX into mice. Antitumor efficacy was assessed by measuring tumor volumes, calculated as largest diameter x smallest diameter^2 x 0.53, every 2 days. For the analysis of antitumor immune responses, tumor tissues were collected on day 7, and single cells were isolated from tumor tissues using a Tumor Dissociation Kit. Following cell counting, the single cells were incubated with FcBlock at 37 °C for 5 min to avoid non-specific antibody binding. Then, multi-parameter staining was performed for 40 min to assess the following populations in tumor tissues; (i) PD-L1^+ cancer cells (CD45^-PD-L1^+); (ii) CRT^+ cancer cells (CD45^-CRT^+); (iii) CD8^+ T cells (CD45^+CD3^+CD8^+); and (iv) regulatory T cells (Tregs; CD45^+CD3^+CD4^+CD25^+). In order to assay the concentration of cytokines in the tumor microenvironment, the IFN-γ and TNF-α in the tumor supernatants were assessed using commercialized ELISA assay kits (Catalog # SMIF00 and SMTA00B, respectively, R&D systems).

4T1 tumor-bearing mice [5] = assay: survival analysis; assay type: in vivo, mouse; conditions: treated once every three days; saline group 18 days
Procedure: as §3, with “Then, multi-parameter staining was performed for 40 min to assess the following populations in tumor tissues; (i) PD-L1^+ cancer cells (CD45^-PD-L1^+); (ii) CRT^+ cancer cells (CD45^-CRT^+); (iii) CD8^+ T cells (CD45^+CD3^+CD8^+); and (iv) regulatory T cells (Tregs; CD45^+CD3^+CD4^+CD25^+).” left out
The statistical significance between two groups was analyzed using Student's t-test. One-way analysis of variance (ANOVA) was performed for comparisons of more than two groups, and multiple comparisons were analyzed using Tukey-Kramer post-hoc test. Survival data was plotted as Kaplan-Meier curves and analyzed using log-rank test. […]

SMILES	cleavage by cathepsin B (cathepsin B; cathepsin B 10 μg, pH 5.5 MES buffer, 0, 6, 12 and 24 h, HPLC)	cleaved by cathepsin B (cathepsin B; 10 μM, cathepsin B 10 μg, MES buffer 0.1 M pH 5.5, 6 h post-incubation, HPLC)	cleavage in cathepsin B-suppressed condition (cathepsin B; cathepsin B with irreversible inhibitor Z-FA-FMK 50 μM, MES buffer pH 5.5, HPLC)	cytotoxicity compared to free DOX (T lymphocytes)	cytotoxicity compared to free DOX (DCs)	cytotoxicity compared to free DOX (macrophages)	accumulation in the liver tissues versus free DOX (4T1 tumor-bearing mice [1]; ex vivo NIRF imaging)	accumulation at tumor tissues compared to free DOX (4T1 tumor-bearing mice [1]; i.v., NIRF)	blood analyses, hematological parameters (AST, ALT, BUN, CK, WBC, NEUT, LYMP) (4T1 tumor-bearing mice [2])	body weights during treatment (4T1 tumor-bearing mice [2])	PD-L1 expression [3]	cytotoxicity in three types of cells (4T1 cells)	tumor volume on day 16 (4T1 tumor-bearing mice [4])	median survival (4T1 tumor-bearing mice [5])
COc1cccc2c1C(=O)c1c(O)c3c(c(O)c1C2=O)C[C@@](O)(C(=O)CO)C[C@@H]3O[C@H]1C[C@H](NC(=O)CNC(=O)[C@H](CCCNC(=N)N)NC(=O)CNC(=O)[C@H](Cc2ccccc2)NC(=O)[C@H](CCCNC(=N)N)NC(=O)[C@@H](NC(=O)[C@H](CCCNC(=N)N)NC(=O)[C@H](C)NC(=O)[C@H](CCCNC(=N)N)NC(=O)[C@@H](NC(=O)[C@H](CS)NC(C)=O)C(C)C)[C@@H](C)O)[C@H](O)[C@H](C)O1 [CVRARTR-FGRG-DOX] (Ac-CVRARTRFGRG-{Doxorubicin(3'-N)})	not cleaved													
COc1cccc2c1C(=O)c1c(O)c3c(c(O)c1C2=O)C[C@@](O)(C(=O)CO)C[C@@H]3O[C@H]1C[C@H](NC(=O)CNC(=O)[C@H](CCCNC(=N)N)NC(=O)[C@H](CCCNC(=N)N)NC(=O)[C@H](Cc2ccccc2)NC(=O)[C@H](CCCNC(=N)N)NC(=O)[C@@H](NC(=O)[C@H](CCCNC(=N)N)NC(=O)[C@H](C)NC(=O)[C@H](CCCNC(=N)N)NC(=O)[C@@H](NC(=O)[C@H](CS)NC(C)=O)C(C)C)[C@@H](C)O)[C@H](O)[C@H](C)O1 [PD-NPs] (Ac-CVRARTRFRRG-{Doxorubicin(3'-N)})		approximately 99%	not cleaved	significantly reduced	significantly reduced	significantly reduced	significantly higher accumulation	4.01-4.48 times	in normal range	gradually increased				
COc1cccc2c1C(=O)c1c(O)c3c(c(O)c1C2=O)C[C@@](O)(C(=O)CO)C[C@@H]3O[C@H]1C[C@H](N)[C@H](O)[C@H](C)O1.Cl [free DOX, Doxorubicin hydrochloride]									severe cardiac, renal and hepatic toxicity	severe body weight loss	further increased	indiscriminate cytotoxicity with similar IC50	1028.73 ± 218.15 mm^3	20 days
